Assay results from patent US20220227830A1, “QD DOSING OF GIP RECEPTOR AGONIST PEPTIDE COMPOUNDS AND USES THEREOF” (Takeda Pharmaceutical Company Limited, priority 2020, published 2022).
Starred links: 1 amine or outer side, 2 acyl side, 3 side chain; linkers in the order of their positions; H or OH if unused. Non-standard residues stand in square brackets, D forms with d. Groups on a side chain read outwards from the residue. No end group written: not given here. *: point of attachment. G2E3 = linker of 2 Gly and 3 Glu (read GGEEE); C15 diacid = O=C(O)CCCCCCCCCCCCCC(=O)*; γGlu = O=C(O)[C@H](CCC(=O)[*:2])N[*:1]; NMeY = CN[C@@H](Cc1ccc(O)cc1)C(=O)O; AEEA = NCCOCCOCC(=O)O; Aib = CC(C)(N)C(=O)O

Key:
[1] = biological target: T1, full-length human GIPR with an N-terminal FLAG tag (human, UniProt P48546 22-466); assay: cell-based or functional assay
T1 sequence (looked up): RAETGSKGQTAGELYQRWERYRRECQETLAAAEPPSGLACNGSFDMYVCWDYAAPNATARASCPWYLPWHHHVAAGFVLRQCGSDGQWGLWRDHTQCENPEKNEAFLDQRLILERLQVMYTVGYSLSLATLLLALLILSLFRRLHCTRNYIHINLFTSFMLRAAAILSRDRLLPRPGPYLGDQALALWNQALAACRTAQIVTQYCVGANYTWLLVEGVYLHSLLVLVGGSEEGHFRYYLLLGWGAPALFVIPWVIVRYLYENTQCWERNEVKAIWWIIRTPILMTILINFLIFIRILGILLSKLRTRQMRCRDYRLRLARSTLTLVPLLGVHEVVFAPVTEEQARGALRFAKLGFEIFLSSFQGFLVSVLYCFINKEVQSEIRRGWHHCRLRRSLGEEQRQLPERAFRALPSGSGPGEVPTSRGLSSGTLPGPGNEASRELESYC

[2] = biological target: full-length human GLP-1R with an N-terminal FLAG tag (human, UniProt P43220 24-463); assay: cell-based or functional assay

Me-Y[Aib]EGTFISDYSIAK([γGlu-γGlu-γGlu-C15 diacid])DR[Aib]AQ[Aib]NFVNWLLAQSPSSGAPPPS-NH2 [Compound 18]
Human GIPR cAMP, HEK293T EC50 [1]: 0.0002 nM | Human GLP1R cAMP HEK293T EC50 [2]: 1000 nM

[NMeY][Aib]EGTFISDYSIALDR[Aib]AQ[Aib]K([AEEA-AEEA-γGlu-γGlu-C15 diacid])FVNWLLAQR (not fully specified (N-terminus, C-terminus)) [Compound 15]
Human GIPR cAMP, HEK293T EC50 [1]: 0.0003 nM | Human GLP1R cAMP HEK293T EC50 [2]: 155 nM

Me-Y[Aib]EGTFISDYSIAKDS[Aib]AQ[Aib]NFVNWLLAQSPSSGAPPPS-NH2 (not fully specified (residues 1, 14)) [Compound 154]
Human GIPR cAMP, HEK293T EC50 [1]: 0.0003 nM | Human GLP1R cAMP HEK293T EC50 [2]: 288 nM

Me-Y[Aib]EGTFISDYSIAKDR[Aib]AQ[Aib]DFVNWLLAQSPSSGAPPPG-OH (not fully specified (residues 1, 14)) [Compound 152]
Human GIPR cAMP, HEK293T EC50 [1]: 0.0003 nM | Human GLP1R cAMP HEK293T EC50 [2]: 302 nM

Me-Y[Aib]EGTFISDYSIAK([AEEA-γGlu-γGlu-γGlu-C15 diacid])DR[Aib]AQ[Aib]NFVNWLLAQK-NH2 [Compound 23]
Human GIPR cAMP, HEK293T EC50 [1]: 0.0004 nM | Human GLP1R cAMP HEK293T EC50 [2]: 363 nM

[NMeY][Aib]EGTFISDYSIAK([G2E3-C15 diacid])DR[Aib]AQ[Aib]NFVNWLLAQK-NH2 [Compound 30]
Human GIPR cAMP, HEK293T EC50 [1]: 0.0001 nM | Human GLP1R cAMP HEK293T EC50 [2]: 442 nM

[NMeY][Aib]EGTFISDYSIAK([AEEA-γGlu-γGlu-γGlu-C15 diacid])DR[Aib]AQ[Aib]NFVNWLL[Aib]QK-OH (not fully specified) [Compound 38]
Human GIPR cAMP, HEK293T EC50 [1]: 0.0002 nM | Human GLP1R cAMP HEK293T EC50 [2]: 525 nM

Me-Y[Aib]EGTFISDYSIAKDS[Aib]AQ[Aib]DFVNWLLAQRPSSGAPPPS-NH2 (not fully specified (residues 1, 14)) [Compound 153]
Human GIPR cAMP, HEK293T EC50 [1]: 0.0002 nM | Human GLP1R cAMP HEK293T EC50 [2]: 389 nM

Me-Y[Aib]EGTFISDYSIALDR[Aib]AQ[Aib]K([AEEA-γGlu-γGlu-γGlu-C15 diacid])FVNWLLAQK-NH2 [Compound 24]
Human GIPR cAMP, HEK293T EC50 [1]: 0.0004 nM | Human GLP1R cAMP HEK293T EC50 [2]: 16.9 nM

Me-Y[Aib]EGTFISDYSI[Aib]KDR[Aib]AQ[Aib]DFVNWLLAQSPSSGAPPPS-OH (not fully specified (residues 1, 14)) [Compound 156]
Human GIPR cAMP, HEK293T EC50 [1]: 0.0002 nM | Human GLP1R cAMP HEK293T EC50 [2]: 89.1 nM

[NMeY][Aib]EGTFISDYSIALDRK([AEEA-AEEA-γGlu-C15 diacid])HQ[Aib]NFVNWLLAQS-OH (also: Me-Tyr methyl position not given here) [Compound 37]
Human GIPR cAMP, HEK293T EC50 [1]: 0.0002 nM | Human GLP1R cAMP HEK293T EC50 [2]: 43.7 nM

B1: Compound 27 (peptide)
peptide: [NMeY][Aib]EGTFISDYSIALDR[Aib]AQ[Aib]K([AEEA-AEEA-γGlu-γGlu-C15 diacid])FVNWLLAQK-OH
modifications: N-terminus assumed
SMILES: CC[C@H](C)[C@H](NC(=O)[C@H](CO)NC(=O)[C@H](Cc1ccc(O)cc1)NC(=O)[C@H](CC(=O)O)NC(=O)[C@H](CO)NC(=O)[C@@H](NC(=O)[C@H](Cc1ccccc1)NC(=O)[C@@H](NC(=O)CNC(=O)[C@H](CCC(=O)O)NC(=O)C(C)(C)NC(=O)[C@H](Cc1ccc(O)cc1)NC)[C@@H](C)O)[C@@H](C)CC)C(=O)N[C@@H](C)C(=O)N[C@@H](CC(C)C)C(=O)N[C@@H](CC(=O)O)C(=O)N[C@@H](CCCNC(=N)N)C(=O)NC(C)(C)C(=O)N[C@@H](C)C(=O)N[C@@H](CCC(N)=O)C(=O)NC(C)(C)C(=O)N[C@@H](CCCCNC(=O)COCCOCCNC(=O)COCCOCCNC(=O)CC[C@H](NC(=O)CC[C@H](NC(=O)CCCCCCCCCCCCCC(=O)O)C(=O)O)C(=O)O)C(=O)N[C@@H](Cc1ccccc1)C(=O)N[C@H](C(=O)N[C@@H](CC(N)=O)C(=O)N[C@@H](Cc1c[nH]c2ccccc12)C(=O)N[C@@H](CC(C)C)C(=O)N[C@@H](CC(C)C)C(=O)N[C@@H](C)C(=O)N[C@@H](CCC(N)=O)C(=O)N[C@@H](CCCCN)C(=O)O)C(C)C
Human GIPR cAMP, HEK293T EC50 [1]: 0.0006 nM | Human GLP1R cAMP HEK293T EC50 [2]: 145 nM

[NMeY][Aib]EGTFISDYSIALDR[Aib]AQ[Aib]K([G2E3-C15 diacid])FVNWLLAQK-NH2 [Compound 31]
Human GIPR cAMP, HEK293T EC50 [1]: 0.0002 nM | Human GLP1R cAMP HEK293T EC50 [2]: 0.776 nM

B2: Compound 36 (peptide)
peptide: YXEGTFISDYSIALDKXHQXDFVNWLLAXK
modifications: not fully specified; Me-Tyr1; Aib 2,17,20; Km29 = Lys(2OEGgE-C15DA); position 21 printed 'O' in Table 3; C-term OH
Human GIPR cAMP, HEK293T EC50 [1]: 0.001 nM | Human GLP1R cAMP HEK293T EC50 [2]: 25.1 nM

Me-Y[Aib]EGTFISDYSIAKDR[Aib]AQ[Aib]DFVNWLLAQSPSSGAPPPS-OH (not fully specified (residues 1, 14)) [Compound 155]
Human GIPR cAMP, HEK293T EC50 [1]: 0.0003 nM | Human GLP1R cAMP HEK293T EC50 [2]: 295 nM

[NMeY][Aib]EGTFISDYSIALDR[Aib]AQ[Aib]NFVNWLLAQK([G2E3-C15 diacid])PSSGAPPPS-OH [Compound 32]
Human GIPR cAMP, HEK293T EC50 [1]: 0.0002 nM | Human GLP1R cAMP HEK293T EC50 [2]: 4.73 nM

[NMeY][Aib]EGTFISDYSIALDR[Aib]AQ[Aib]NFVNWLLAK([AEEA-AEEA-γGlu-C15 diacid])K-OH (not fully specified) [Compound 34]
Human GIPR cAMP, HEK293T EC50 [1]: 0.0003 nM | Human GLP1R cAMP HEK293T EC50 [2]: 117 nM

Me-Y[Aib]EGTFISDYSIAK([2OEG-γGlu-γGlu-C15 diacid])DR[Aib]AQ[Aib]NFVNWLLAQK-NH2 [Compound 22]
Human GIPR cAMP, HEK293T EC50 [1]: 0.0003 nM | Human GLP1R cAMP HEK293T EC50 [2]: 631 nM

B3: Compound 28 (peptide)
peptide: [NMeY][Aib]EGTFISDYSIAK([AEEA-γGlu-γGlu-γGlu-C15 diacid])DR[Aib]AQ[Aib]NFVNWLL[Aib]QK-NH2
modifications: N-terminus assumed
SMILES: CC[C@H](C)[C@H](NC(=O)[C@H](CO)NC(=O)[C@H](Cc1ccc(O)cc1)NC(=O)[C@H](CC(=O)O)NC(=O)[C@H](CO)NC(=O)[C@@H](NC(=O)[C@H](Cc1ccccc1)NC(=O)[C@@H](NC(=O)CNC(=O)[C@H](CCC(=O)O)NC(=O)C(C)(C)NC(=O)[C@H](Cc1ccc(O)cc1)NC)[C@@H](C)O)[C@@H](C)CC)C(=O)N[C@@H](C)C(=O)N[C@@H](CCCCNC(=O)COCCOCCNC(=O)CC[C@H](NC(=O)CC[C@H](NC(=O)CC[C@H](NC(=O)CCCCCCCCCCCCCC(=O)O)C(=O)O)C(=O)O)C(=O)O)C(=O)N[C@@H](CC(=O)O)C(=O)N[C@@H](CCCNC(=N)N)C(=O)NC(C)(C)C(=O)N[C@@H](C)C(=O)N[C@@H](CCC(N)=O)C(=O)NC(C)(C)C(=O)N[C@@H](CC(N)=O)C(=O)N[C@@H](Cc1ccccc1)C(=O)N[C@H](C(=O)N[C@@H](CC(N)=O)C(=O)N[C@@H](Cc1c[nH]c2ccccc12)C(=O)N[C@@H](CC(C)C)C(=O)N[C@@H](CC(C)C)C(=O)NC(C)(C)C(=O)N[C@@H](CCC(N)=O)C(=O)N[C@@H](CCCCN)C(N)=O)C(C)C
Human GIPR cAMP, HEK293T EC50 [1]: 0.0001 nM | Human GLP1R cAMP HEK293T EC50 [2]: 60.3 nM

Me-Y[Aib]EGTFISDYSIAK([AEEA-AEEA-γGlu-γGlu-C15 diacid])DR[Aib]AQ[Aib]NFVNWLLAQS (not fully specified (residue 1)) [Compound 16]
Human GIPR cAMP, HEK293T EC50 [1]: 0.0003 nM | Human GLP1R cAMP HEK293T EC50 [2]: 263 nM

B4: Compound 26 (peptide)
peptide: [NMeY][Aib]EGTFISDYSIAK([AEEA-AEEA-γGlu-γGlu-C15 diacid])DR[Aib]AQ[Aib]NFVNWLLAQK-OH
modifications: N-terminus assumed
SMILES: CC[C@H](C)[C@H](NC(=O)[C@H](CO)NC(=O)[C@H](Cc1ccc(O)cc1)NC(=O)[C@H](CC(=O)O)NC(=O)[C@H](CO)NC(=O)[C@@H](NC(=O)[C@H](Cc1ccccc1)NC(=O)[C@@H](NC(=O)CNC(=O)[C@H](CCC(=O)O)NC(=O)C(C)(C)NC(=O)[C@H](Cc1ccc(O)cc1)NC)[C@@H](C)O)[C@@H](C)CC)C(=O)N[C@@H](C)C(=O)N[C@@H](CCCCNC(=O)COCCOCCNC(=O)COCCOCCNC(=O)CC[C@H](NC(=O)CC[C@H](NC(=O)CCCCCCCCCCCCCC(=O)O)C(=O)O)C(=O)O)C(=O)N[C@@H](CC(=O)O)C(=O)N[C@@H](CCCNC(=N)N)C(=O)NC(C)(C)C(=O)N[C@@H](C)C(=O)N[C@@H](CCC(N)=O)C(=O)NC(C)(C)C(=O)N[C@@H](CC(N)=O)C(=O)N[C@@H](Cc1ccccc1)C(=O)N[C@H](C(=O)N[C@@H](CC(N)=O)C(=O)N[C@@H](Cc1c[nH]c2ccccc12)C(=O)N[C@@H](CC(C)C)C(=O)N[C@@H](CC(C)C)C(=O)N[C@@H](C)C(=O)N[C@@H](CCC(N)=O)C(=O)N[C@@H](CCCCN)C(=O)O)C(C)C
Human GIPR cAMP, HEK293T EC50 [1]: 0.0003 nM | Human GLP1R cAMP HEK293T EC50 [2]: 1000 nM
